Assay results reported in doi:10.1101/2021.05.11.443575.

Legend:
[1] = target: FLAG-PfDdi1^D262N (recombinant full length catalytically inactive PfDdi1 with N-terminal FLAG tag) (P. falciparum); test: native MS
[2] = target: FLAG-PfDdi1 (recombinant full length PfDdi1 with N-terminal FLAG tag) (P. falciparum); test: native MS

| Substance | stoichiometry N [1] | stoichiometry N [2] |
| --- | --- | --- |
| FLAG-PfDdi1^D262N (recombinant full length catalytically inactive PfDdi1 with N-terminal FLAG tag) (enzyme) | 2 | – |
| FLAG-PfDdi1 (recombinant full length PfDdi1 with N-terminal FLAG tag) (enzyme) | – | 2 |
